In patent US20260000597A1 (priority 2018, published 2026):

Biological target: AchR (Homo sapiens, UniProt P02708)
Test: ELISA of screened peptide phages on AchR versus streptavidin (OD450)
Type: binding
Conditions: absorbance at 450 nm
Method in brief: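 Reported as the ratio of AchR to streptavidin OD450, with TMB read-out after HRP anti-M13 detection. Wells coated with 5 μg/ml target overnight at 4 °C and BSA-blocked, then incubated 1 h at 30 °C with helper-rescued phage from individual plaques.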

[1] = ELISA of selected 14-mer (L3) peptide phages on AchR, Spep-2 positive control
[2] = phage ELISA, 5 μg/ml AchR, 4th and 5th round biopanning phages
[3] = ELISA of selected 11-mer (L2) peptide phages on AchR, Spep-2 positive control

Chain of AchR (P02708 21-457): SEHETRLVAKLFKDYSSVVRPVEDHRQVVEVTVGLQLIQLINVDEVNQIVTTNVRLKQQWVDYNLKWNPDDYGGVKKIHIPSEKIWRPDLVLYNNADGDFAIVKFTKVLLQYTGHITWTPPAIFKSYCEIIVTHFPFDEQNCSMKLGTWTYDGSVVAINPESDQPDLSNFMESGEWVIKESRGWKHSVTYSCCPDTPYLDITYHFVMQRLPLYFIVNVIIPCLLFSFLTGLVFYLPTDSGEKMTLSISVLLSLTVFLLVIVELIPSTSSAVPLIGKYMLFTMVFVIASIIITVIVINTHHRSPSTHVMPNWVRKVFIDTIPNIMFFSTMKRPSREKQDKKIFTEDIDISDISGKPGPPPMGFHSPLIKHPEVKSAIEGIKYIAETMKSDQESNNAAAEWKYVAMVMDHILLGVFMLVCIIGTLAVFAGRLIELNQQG

Substance | OD [1] | OD [2] | OD [3]
L3-177 (FQPKSRRAETKHSY; AchR binding peptide) [Peptide L3-177] | 0.735 | – | –
KLRKQKLR [Peptide L1-43] | – | 0.601 | –
L3-29 (CASKPRRTYLRAAN; AchR binding peptide) [Peptide L3-29] | 0.789 | – | –
RTKKENVK [Peptide L1-180] | – | 0.618 | –
L2-185 (FITRFRKMGEK; AchR binding peptide) [Peptide L2-185] | – | – | 0.742
L2-142 (DNPRFRKTILK; AchR binding peptide) [Peptide L2-142] | – | – | 0.512
L2-87 (EWHKVRRVYAK; AchR binding peptide) [Peptide L2-87] | – | – | 0.716
L3-68 (YSSKSRKLSPRTPR; AchR binding peptide) [Peptide L3-68] | 0.792 | – | –
L3-150 (YLSRTKRWLARYVE; AchR binding peptide) [Peptide L3-150] | 0.518 | – | –
L3-107 (DLSKVRRGHGKNDI; AchR binding peptide) [Peptide L3-107] | 0.658 | – | –
L2-49 (YPFKAKRPAEK; AchR binding peptide) [Peptide L2-49] | – | – | 0.734
KDKKQWGR [Peptide L1-114] | – | 0.42 | –
L3-75 (QIPKQKKQEQRAIS; AchR binding peptide) [Peptide L3-75] | 0.72 | – | –
KCKKMTER [Peptide L1-37] | – | 0.524 | –
L2-174 (PLFKSRRAYVR; AchR binding peptide) [Peptide L2-174] | – | – | 0.693
L2-23 (QTYRLKKPLQK; AchR binding peptide) [Peptide L2-23] | – | – | 0.832
KGKKYYQK [Peptide L1-105] | – | 0.507 | –
L3-86 (SEVRPKKDHSRLFI; AchR binding peptide) [Peptide L3-86] | 0.755 | – | –
KPKKPPAR [Peptide L1-84] | – | 0.576 | –
L2-108 (QQDRPKRDIPK; AchR binding peptide) [Peptide L2-108] | – | – | 0.716
L3-15 (YEPRFKRPYGKWCH; AchR binding peptide) [Peptide L3-15] | 0.859 | – | –
L3-108 (ESYRLRRGTDKEQW; AchR binding peptide) [Peptide L3-108] | 0.621 | – | –
L3-134 (YWFRIKRAHAKGCP; AchR binding peptide) [Peptide L3-134] | 0.653 | – | –
L2-144 (PYTRCRKEICK; AchR binding peptide) [Peptide L2-144] | – | – | 0.521
KMRRIMYK [Peptide L1-64] | – | 0.589 | –

Substance | OD [1] | OD [2] | OD [3]
L3-9 (NCNRFRRTIVRHCH; AchR binding peptide) [Peptide L3-9] | 0.725 | – | –
L2-165 (AYPKFRKTFNR; AchR binding peptide) [Peptide L2-165] | – | – | 0.718
L2-34 (VMDRDRKWWWR; AchR binding peptide) [Peptide L2-34] | – | – | 0.604
L2-183 (TCDRARKESFR; AchR binding peptide) [Peptide L2-183] | – | – | 0.688
L3-161 (MAAKWKKDGMKSHY; AchR binding peptide) [Peptide L3-161] | 0.733 | – | –
L2-42 (YYAKSKKYMVR; AchR binding peptide) [Peptide L2-42] | – | – | 0.508
KYKKQHTK [Peptide L1-41] | – | 0.613 | –
KIKRDLYK [Peptide L1-90] | – | 0.439 | –
KFRKHVCK [Peptide L1-116] | – | 0.492 | –
L2-156 (YGLRMRKWYMK; AchR binding peptide) [Peptide L2-156] | – | – | 0.683
L3-52 (GTFKWRKSGARQYL; AchR binding peptide) [Peptide L3-52] | 0.757 | – | –
L3-109 (YITKFRKFLMKDQF; AchR binding peptide) [Peptide L3-109] | 0.613 | – | –
L3-151 (HTLKPKRLYPRPSE; AchR binding peptide) [Peptide L3-151] | 0.624 | – | –
RLKKHCGK [Peptide L1-187] | – | 0.668 | –
RSRRCPVK [Peptide L1-119] | – | 0.463 | –
L2-125 (PADKGRREVMK; AchR binding peptide) [Peptide L2-125] | – | – | 0.481
L3-104 (ASVRDRKMGYKSDG; AchR binding peptide) [Peptide L3-104] | 0.57 | – | –
KVKKIYYR [Peptide L1-144] | – | 0.503 | –
RQRRNDMK [Peptide L1-9] | – | 0.639 | –
RHRKYVDK [Peptide L1-152] | – | 0.484 | –
L3-159 (QIAKLKRDQMKEAW; AchR binding peptide) [Peptide L3-159] | 0.786 | – | –
RSRRGIGK [Peptide L1-192] | – | 0.581 | –
L2-170 (QVHRNKRYTDR; AchR binding peptide) [Peptide L2-170] | – | – | 0.718
L2-129 (TCIKYRRAHTK; AchR binding peptide) [Peptide L2-129] | – | – | 0.603
L3-62 (YPERPRKLQDKSYS; AchR binding peptide) [Peptide L3-62] | 0.766 | – | –

Substance | OD [1] | OD [2] | OD [3]
GGGRKKRRQRR [Peptide L2-202, reference compound] | – | 0.314 | –
RTKKAYVK [Peptide L1-200] | – | 0.621 | –
KIKKLSQK [Peptide L1-168] | – | 0.588 | –
L3-81 (PTWRHRRYCAKDIG; AchR binding peptide) [Peptide L3-81] | 0.775 | – | –
L2-3 (SPVRWKRLCLR; AchR binding peptide) [Peptide L2-3] | – | – | 0.796
L2-184 (MHQRERRNFVK; AchR binding peptide) [Peptide L2-184] | – | – | 0.736
L2-80 (FWDRVKRNPSK; AchR binding peptide) [Peptide L2-80] | – | – | 0.685
L3-141 (FFYRLRRCLTRWWV; AchR binding peptide) [Peptide L3-141] | 0.504 | – | –
KSRRSAGK [Peptide L1-73] | – | 0.644 | –
KNKKCVGR [Peptide L1-88] | – | 0.562 | –
L2-198 (DIYKGKRTLVK; AchR binding peptide) [Peptide L2-198] | – | – | 0.718
L3-200 (HMCRWRRQINKGVS; AchR binding peptide) [Peptide L3-200] | 0.733 | – | –
RYKKVPAK [Peptide L1-118] | – | 0.471 | –
L2-179 (GIAKSKRNAGR; AchR binding peptide) [Peptide L2-179] | – | – | 0.716
L3-100 (LEERPKKHCAKNHC; AchR binding peptide) [Peptide L3-100] | 0.572 | – | –
RPKKWMQK [Peptide L1-61] | – | 0.625 | –
L3-129 (IHPRYKRHQARSCC; AchR binding peptide) [Peptide L3-129] | 0.606 | – | –
RDRKIHDK [Peptide L1-23] | – | 0.712 | –
KERKASAK [Peptide L1-63] | – | 0.618 | –
L3-116 (YGSKQRRFEEKICG; AchR binding peptide) [Peptide L3-116] | 0.644 | – | –
KMRKHDVR [Peptide L1-74] | – | 0.649 | –
L2-66 (PNYKWRKSRRR; AchR binding peptide) [Peptide L2-66] | – | – | 0.798
L2-71 (PYLRSKRFPPR; AchR binding peptide) [Peptide L2-71] | – | – | 0.651
L3-163 (PFTKMRKQFQRMSA; AchR binding peptide) [Peptide L3-163] | 0.78 | – | –
L2-18 (LQSRSKKYSVK; AchR binding peptide) [Peptide L2-18] | – | – | 0.753

Substance | OD [1] | OD [2] | OD [3]
RSKRMNGK [Peptide L1-58] | – | 0.472 | –
KTRKIVMK [Peptide L1-199] | – | 0.596 | –
L3-152 (VVIKCRKWTHKMDH; AchR binding peptide) [Peptide L3-152] | 0.818 | – | –
L2-190 (NLVKSKKVEEK; AchR binding peptide) [Peptide L2-190] | – | – | 0.721
L2-48 (VSTKIKKEPQR; AchR binding peptide) [Peptide L2-48] | – | – | 0.629
L2-138 (IMERQRKSQHR; AchR binding peptide) [Peptide L2-138] | – | – | 0.509
L2-143 (AIIKFRKVQWK; AchR binding peptide) [Peptide L2-143] | – | – | 0.401
KGKRTGCK [Peptide L1-126] | – | 0.362 | –
L2-43 (LMDRTRRDMYK; AchR binding peptide) [Peptide L2-43] | – | – | 0.572
L2-30 (PTLKWRKPVLR; AchR binding peptide) [Peptide L2-30] | – | – | 0.746
L3-148 (MMARCRRIMCRSFN; AchR binding peptide) [Peptide L3-148] | 0.451 | – | –
L3-80 (MEGREKKSYNKGEN; AchR binding peptide) [Peptide L3-80] | 0.589 | – | –
L2-118 (FLRRLKKVHWK; AchR binding peptide) [Peptide L2-118] | – | – | 0.65
L2-19 (GWNRAKREESK; AchR binding peptide) [Peptide L2-19] | – | – | 0.727
L3-170 (CIFKFKKNMFKGYS; AchR binding peptide) [Peptide L3-170] | 0.768 | – | –
L3-22 (HSLKTRKSAFKSNT; AchR binding peptide) [Peptide L3-22] | 0.83 | – | –
L3-50 (VFDKFRKTENRGVI; AchR binding peptide) [Peptide L3-50] | 0.634 | – | –
L2-133 (DFSRDRRCLSK; AchR binding peptide) [Peptide L2-133] | – | – | 0.526
KTKKIHSK [Peptide L1-22] | – | 0.732 | –
L3-78 (FITKSRRQQFRNQG; AchR binding peptide) [Peptide L3-78] | 0.712 | – | –
L2-122 (MGDRPRKWDSR; AchR binding peptide) [Peptide L2-122] | – | – | 0.558
KKRKGSAK [Peptide L1-2] | – | 0.68 | –
